The record followed here is publication PMC8834548, “Epiregulin as an Alternative Ligand for Leptin Receptor Alleviates Glucose Intolerance without Change in Obesity” (Cells, 2022).

Test [1] concerns the target leptin receptor (LepR), endogenous in mouse adipose tissue (mouse (endogenous in Lep^ob adipose tissue)) (UniProt P48356).
Test [2] has as its target mouse recombinant leptin receptor (LepR) protein (mouse) (UniProt P48356). Briefly: quartz crystal microbalance with dissipation (QCM-D); LepR (1.6 pM in PBS) laid as a monolayer on a gold quartz sensor, then mouse leptin or mouse EREG (1.6 fM) added; PBS pH 7.1-7.5, 25 C, flow 50 uL/min; frequency, dissipation and modelled film thickness.
In test [3] the target is T1, mouse recombinant leptin receptor (LepR) protein (mouse, UniProt P48356 22-839).
T1 construct: leptin receptor, mouse, recombinant, R&D systems 497-LR/CF; also called recombinant LepR; source: bought: R&D systems, 497-LR/CF
T1 sequence (looked up): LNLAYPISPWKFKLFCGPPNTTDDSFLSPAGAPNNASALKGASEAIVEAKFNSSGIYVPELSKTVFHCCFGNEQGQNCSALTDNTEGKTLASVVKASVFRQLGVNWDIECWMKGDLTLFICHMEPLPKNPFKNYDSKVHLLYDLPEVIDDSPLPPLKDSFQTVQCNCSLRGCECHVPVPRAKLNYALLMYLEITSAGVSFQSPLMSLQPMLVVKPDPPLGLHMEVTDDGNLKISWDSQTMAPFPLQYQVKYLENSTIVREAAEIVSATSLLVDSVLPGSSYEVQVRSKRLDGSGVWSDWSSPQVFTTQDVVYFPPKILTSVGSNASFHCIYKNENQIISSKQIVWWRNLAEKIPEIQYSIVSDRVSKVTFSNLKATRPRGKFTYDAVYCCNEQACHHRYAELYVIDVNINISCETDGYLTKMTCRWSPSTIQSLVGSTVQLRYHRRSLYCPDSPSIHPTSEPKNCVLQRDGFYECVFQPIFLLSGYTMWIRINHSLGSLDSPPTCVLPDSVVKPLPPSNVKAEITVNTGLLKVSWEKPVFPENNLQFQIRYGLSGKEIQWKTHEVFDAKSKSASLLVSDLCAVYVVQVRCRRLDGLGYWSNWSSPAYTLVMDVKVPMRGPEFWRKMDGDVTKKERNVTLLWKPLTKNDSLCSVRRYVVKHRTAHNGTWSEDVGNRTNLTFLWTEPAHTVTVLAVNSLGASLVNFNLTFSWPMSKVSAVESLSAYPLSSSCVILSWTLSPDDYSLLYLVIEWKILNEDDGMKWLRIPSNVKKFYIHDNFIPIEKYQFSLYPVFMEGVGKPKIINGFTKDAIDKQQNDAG
Described as above. To be noted: both partners purified.

As to mouse recombinant EREG (ligand), the FD-glucose uptake in 3T3-L1 preadipocytes against the concentration of mouse EREG in test [1] amounted to 26 nM. Moreover, the thickness of the LepR film after EREG was added (23 nm before) in test [2] came out at 20 nm.

B1: mouse leptin (ligand, UniProt P41160 22-167, looked up)
chain: VPIQKVQDDTKTLIKTIVTRINDISHTQSVSAKQRVTGLDFIPGLHPILSLSKMDQTLAVYQQVLTSLPSQNVLQIANDLENLRDLLHLLAFSKSCSLPQTSGLQKPESLDGVLEASLYSTEVVALSRLQGSLQDILQQLDVSPEC
notes: leptin, mouse, Crystal Chem 90030-B; source: bought: Crystal Chem, 90030-B
Consider B1, for which the binding result in test [3] is listed as “binds”.
